Data as given in PMC7156710, “The Sox2 transcription factor binds RNA”.
“And” between values parts separate entries of the source, which are not always exact repeats. Equal values may be shown once.

B1: Loop B fully paired RNA duplex (dsRNA)
RNA 1: GGUCUUAUCAUGCGGGC
RNA 2: GCCCGCAUGAUAAGACC
B2: FGF4 enhancer dsDNA (dsDNA)
DNA 1: CGCGCCTTTGTTCCCGGGT
DNA 2: ACCCGGGAACAAAGGCGCG
B3: ES2 89-178 (structured_RNA)
RNA: GGCUGGAACAUCUGUUUCUAGCUUGUUGUUCCUCUUGGCUGCUUUUCAAUUGGAUUUCCUCGAGCAGGUCCCAGGCUUGUCACUGCAGCCA
B4: ES2 179-267 (structured_RNA)
RNA: GGGUCUGUUAACCAUCACCACUGGUUCUACAUUAAGUAGGAGGUUCAGGGCUAAGCUAAUAACUCGCCUGCCUUUCUGACUGAUCACAG
B5: ES2 267-354 (structured_RNA)
RNA: GGUGAUGUUCGCCGUGGCCACUUAUCAUGCGGGCUCCUUUGGGAGGGUGCUCUUCUUUGUCUGUACCUCUGGGUGGAAAGGGCGAAUUC
B6: xpt-pbuX riboswitch (structured_RNA)
RNA: GGACAUAUAAUCGCGUGGAUAUGGCACGCAAGUUUCUACCGGGCACCGUAAAUGUCCGACUAUGUCC
B7: env4 Cbl riboswitch (structured_RNA)
RNA: GGUGUUAAAAGCAUAGUGGGAAAGUGACGUGUAAUUCGUCCACAUUACUUGAUGCGGUUAUAGUCCCAAUGCCACCUAACACAAAGUACGAGCAAGGAGACUC
B8: tRNALeu(CAG) (structured_RNA)
RNA: GCGAAGGUGGCGGAAUUGGUAGACGCGCUAGCUUCAGGUGUUAGUGUCCUUACGGACGUGGGGGUUCAAGUCCCCCCCCUCGCACCAGGAUCU
B9: Loop B fully paired RNA duplex (Fig. 3g) (dsRNA)
RNA 1: GGUCUUAUCAUGCGGGC
RNA 2: GCCCGCAUGAUAAGACC
B10: DPPA4 enhancer dsDNA (dsDNA)
DNA 1: CGCGCATTTGTACCCGGGT
DNA 2: ACCCGGGTACAAATGCGCG
B11: SOX2 enhancer dsDNA (dsDNA)
DNA 1: CGCGCCATTGTGCCCGGGT
DNA 2: ACCCGGGCACAATGGCGCG
B12: CCND1_SM1 dsDNA (dsDNA)
DNA 1: CGCGCCCTCTTCCCCGGGT
DNA 2: ACCCGGGGAAGAGGGCGCG
B13: CCND1_SM6 dsDNA (dsDNA)
DNA 1: CGCGCACTACAGCCCGGGT
DNA 2: ACCCGGGCTGTAGTGCGCG
B14: ES2 1-178 (structured_RNA)
RNA: GGAAGAAGUGAAAUCACUAUAUUUAGAAACGAAUGCUACCAUCCCACCCCAACUACAUGUUCAGGUUAAAUGCGUGCACAUCCUGGUAGCUGGAACAUCUGUUUCUAGCUUGUUGUUCCUCUUGGCUGCUUUUCAAUUGGAUUUCCUCGAGCAGGUCCCAGGCUUGUCACUGCAGCCA
B15: ES2 89-267 (structured_RNA)
RNA: GGCUGGAACAUCUGUUUCUAGCUUGUUGUUCCUCUUGGCUGCUUUUCAAUUGGAUUUCCUCGAGCAGGUCCCAGGCUUGUCACUGCAGCCAGGGUCUGUUAACCAUCACCACUGGUUCUACAUUAAGUAGGAGGUUCAGGGCUAAGCUAAUAACUCGCCUGCCUUUCUGACUGAUCACAG
B16: ES2 179-354 (structured_RNA)
RNA: GGGUCUGUUAACCAUCACCACUGGUUCUACAUUAAGUAGGAGGUUCAGGGCUAAGCUAAUAACUCGCCUGCCUUUCUGACUGAUCACAGUGAUGUUCGCCGUGGCCACUUAUCAUGCGGGCUCCUUUGGGAGGGUGCUCUUCUUUGUCUGUACCUCUGGGUGGAAAGGGCGAAUUC
B17: ES2 1-89 (structured_RNA)
RNA: GGAAGAAGUGAAAUCACUAUAUUUAGAAACGAAUGCUACCAUCCCACCCCAACUACAUGUUCAGGUUAAAUGCGUGCACAUCCUGGUAG

Tests used:
[1] = target: T1, Sox2-HMG (Homo sapiens, UniProt P48431 40-123); assay: fluorescence anisotropy; 10 mM Tris-HEPES pH 7.5, 135 mM KCl, 15 mM NaCl, 1 mM DTT, 8% Ficoll, 0.05% NP-40, 0.1 mg/mL BSA; 2 nM DNA or 3 nM RNA; room temperature (stated for competition); conditions: protein: recombinant, tags: N-terminal His6, thrombin cleaved
T1 sequence (P48431 40-123): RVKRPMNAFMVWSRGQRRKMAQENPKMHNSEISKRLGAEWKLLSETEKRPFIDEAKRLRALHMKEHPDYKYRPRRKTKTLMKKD

[2] = target: Sox2-HMG (thrombin cleaved) (Homo sapiens, UniProt P48431 38-121); assay: fluorescence anisotropy; 10 mM Tris-HEPES pH 7.5, 8% Ficoll, 0.05% NP-40, 135 mM KCl, 15 mM NaCl, 1 mM DTT, 0.1 mg/mL BSA; 2 nM DNA or 3 nM RNA; conditions: protein: recombinant, tags: N-terminal GSHM left after thrombin cleavage of His6
Chain of Sox2-HMG (thrombin cleaved) (P48431 other isoform, or with tags, fused parts or gaps): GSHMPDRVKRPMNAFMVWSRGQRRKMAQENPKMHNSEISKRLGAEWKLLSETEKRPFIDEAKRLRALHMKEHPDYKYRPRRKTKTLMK

[3] = target: T1, Sox2-HMG; assay: EMSA; 10 mM Tris-HEPES pH 7.5, 135 mM KCl, 15 mM NaCl, 1 mM DTT, 8% Ficoll, 0.05% NP-40, 0.1 mg/mL BSA; 2 nM DNA or 3 nM RNA; room temperature (stated for competition); conditions: protein: recombinant; tags: N-terminal His6, thrombin cleaved; label: 3' fluorescein; hairpin
[4] = target: T1, Sox2-HMG; assay: competition; unlabeled RNA vs labeled FGF4 DNA; 10 mM Tris-HEPES pH 7.5, 135 mM KCl, 15 mM NaCl, 1 mM DTT, 8% Ficoll, 0.05% NP-40, 0.1 mg/mL BSA; 2 nM DNA or 3 nM RNA; room temperature (stated for competition); conditions: protein: recombinant; tags: N-terminal His6, thrombin cleaved; label: 3' fluorescein; hairpin
[5] = target: Sox2 full length (Homo sapiens, UniProt P48431 1-317); assay: fluorescence anisotropy; 10 mM Tris-HEPES pH 7.5, 8% Ficoll, 0.05% NP-40, 135 mM KCl, 15 mM NaCl, 1 mM DTT, 0.1 mg/mL BSA; 2 nM DNA or 3 nM RNA; conditions: protein: recombinant, tags: N-terminal His6 and thrombin site (retained)
Chain of Sox2 full length (P48431 whole entry): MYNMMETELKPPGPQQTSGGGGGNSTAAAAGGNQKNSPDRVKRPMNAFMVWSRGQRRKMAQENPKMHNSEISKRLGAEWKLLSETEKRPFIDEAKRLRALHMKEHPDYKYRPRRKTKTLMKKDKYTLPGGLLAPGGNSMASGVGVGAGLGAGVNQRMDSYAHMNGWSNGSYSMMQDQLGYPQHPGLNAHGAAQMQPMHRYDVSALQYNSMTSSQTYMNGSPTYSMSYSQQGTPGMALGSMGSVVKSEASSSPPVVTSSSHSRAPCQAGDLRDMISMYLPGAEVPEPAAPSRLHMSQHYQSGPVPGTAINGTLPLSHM

[6] = target: Sox2-HMG (HRV 3C cleaved) (Homo sapiens, UniProt P48431 38-121); assay: as above; conditions: protein: recombinant; tags: N-terminal GPHM left after removal of His8-MBP; label: 3'-FAM; hairpin
Chain of Sox2-HMG (HRV 3C cleaved) (P48431 other isoform, or with tags, fused parts or gaps): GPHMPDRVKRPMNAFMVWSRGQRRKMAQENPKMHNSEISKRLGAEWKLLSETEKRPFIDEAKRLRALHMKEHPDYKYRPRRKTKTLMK

[7] = label: FAM, only (+) strand given
[8] = label: 3' fluorescein, unstructured

Row | Binder | Kd ([2]; label: 3' fluorescein, hairpin) | Kd ([2]; label: 3' fluorescein) | also measured
1 | GGUUAUCAUGCGGGCGAAAGUCUGUACCUCUGGCC (structured_RNA) [Loop B, P1(5bp)] | 12.8 ± 1.84 nM | – | Kd ([1]; label: 3' fluorescein, hairpin): 12.8 ± 1.8 nM
2 | GGUCUUAUCAUGCGGGCGAAAGUCUGUAUGAUGGGACC (structured_RNA) [Loop B, Fully Paired] | 14.7 ± 1.68 nM | – | Kd ([1]; label: 3' fluorescein, hairpin): 15 ± 2 nM; Kd [3]: 20 ± 4 nM
3 | B1 | – | – | Kd ([1]; label: FAM on one strand, blunt): 54 ± 9 nM
4 | GGUCUUAAGGUGCGGGCGAAAGUCUGUACCUCUGGGACC (structured_RNA) [Loop B, Bulge(0+1)] | 10 ± 1.66 nM | – | Ki [4]: 13 ± 4 nM
5 | B2 | – | – | Kd [2, 7]: 0.937 nM and 0.85 nM; Kd [5, 7]: 2.1 ± 0.599 nM
6 | B3 | – | 13.4 ± 1.63 nM | –
7 | B4 | – | 11.5 ± 2.68 nM | –
8 | B5 | – | 10.3 ± 2.03 nM | –
9 | GGUCGCCGUGGCCACUUCGAAAGGGGUGGAAAGGGCGACC (structured_RNA) [Loop A] | 11.3 ± 2.5 nM | – | –
10 | GGUCUUAUCAUGCGGGCGAAAGUCUGUACCUCUGGGACC (structured_RNA) [Loop B] | – | – | Kd ([2]; label: 3' fluorescein, hairpin with internal loop): 10 ± 1.68 nM
11 | GGUGGGCUCCUUUGGGAGGGUGCUCUUCUUUGUCUACC (structured_RNA) [Loop C] | 11.2 ± 1.57 nM | – | –
12 | GGAUCAUGCGGGCGAAAGUCUGUACCUCUCC (structured_RNA) [Loop B, P1(3bp)] | 10.3 ± 1.94 nM | – | –
13 | GGUCUUAUCAUGCGCGAAAGUGUACCUCUGGGACC (structured_RNA) [Loop B, P2(5bp)] | 9.6 ± 1.32 nM | – | –
14 | GGUCUUAUCAUGCGAAAGUACCUCUGGGACC (structured_RNA) [Loop B, P2(3bp)] | 11.4 ± 1.46 nM | – | –
15 | AUACAACAUACAACAUACAACAUACAACAUACAACA (ssRNA) [env8 ssRNA] | – | – | Kd [2, 8]: 502 ± 123 nM; Kd [5, 8]: 512 ± 76.5 nM
16 | GGUAUCAUGCGGAAACGCACCUCUACC (structured_RNA) [Loop B, P1/2(3bp)] | 10.6 ± 1.82 nM | – | –
17 | GGUCUUAUCGUGCGGGCGAAAGUCUGUACCUCUGGGACC (structured_RNA) [Loop B, Bulge(2+3)] | 13.6 ± 2.46 nM | – | –

Row | Binder | Kd ([2]; label: 3' fluorescein, hairpin) | Kd ([2]; label: 3' fluorescein) | also measured
18 | GGUCUUAUGGUGCGGGCGAAAGUCUGUACCUCUGGGACC (structured_RNA) [Loop B, Bulge(1+2)] | 12 ± 1.98 nM | – | –
19 | B6 | – | 25.4 ± 2.54 nM | –
20 | B7 | – | 32.4 ± 1.08 nM | –
21 | B8 | – | 26.5 ± 5.62 nM | –
22 | B9 | – | – | Kd ([2]; label: FAM on one strand): 35.1 ± 2.81 nM
23 | B10 | – | – | Kd [2, 7]: 3.4 ± 0.954 nM
24 | B11 | – | – | Kd [2, 7]: 0.867 ± 0.219 nM
25 | B12 | – | – | Kd [2, 7]: 9.77 ± 1.07 nM
26 | B13 | – | – | Kd [2, 7]: 23.8 ± 5.4 nM
27 | GGUCCAUGCGGGCGAAAGUCUGUAUGGACC (structured_RNA) [13 bp hairpin] | – | – | Kd [6]: 83 ± 9.8 nM
28 | GGUCCAUGCGAAAGUAUGGACC (structured_RNA) [9 bp hairpin] | – | – | Kd [6]: 54 ± 6.94 nM
29 | GGUCCGAAAGGACC (structured_RNA) [5 bp hairpin] | – | – | Kd [6]: 71 ± 12.1 nM
30 | B14 | – | 29.7 ± 4.07 nM | –
31 | B15 | – | 32.4 ± 6.56 nM | –
32 | B16 | – | 11.2 ± 0.792 nM | –
33 | B17 | – | 22.2 ± 3.26 nM | –
